Substitutions are numbered along the chain they refer to. Values joined by “and” are separate entries in the source; they are usually repeats but may differ in a detail not shown here. Equal values may be shown once.

Sequences and labels used below:
B1: BMS3h-56-262 (other)
VH: EVQLLESGGGLVQPGGSLRLSCAASGFTFRDYEMWWVRQAPGKGLERVSAINPQGTRTYYADSVKGRFTISRDNSKNTLYLQMNSLRAEDTAVYYCAKLPQLFHDRGQGTLVTVSS
notes: domain antibody (dAb): single human VH domain
B2: BMS3h-56-261 (other)
VH: B1 VH with Q101F, L102F, H104Q, D105E, R106W
notes: as for B1
B3: BMS3h-56-258 (other)
VH: B1 VH with Q101F, L102Y, D105E, R106W
notes: as for B1
B4: BMS3h-56-269 (other)
VH: B1 VH with Q101F, L102R, H104S
notes: as for B1
B5: BMS3h-56-265 (other)
VH: B1 VH with H104Q, R106W
notes: as for B1
B6: BMS3h-56-270 (other)
VH: B1 VH with Q101T, H104Q, R106W
notes: as for B1
B7: BMS3h-56-266 (other)
VH: B1 VH with Q101F, L102F, D105E, R106W
notes: as for B1
B8: BMS3h-37-2 (other)
VH: EVQLLESGGGLVQPGGSLRLSCAASGFTFEWYEMQWVRRAPGKGLEWVSAISGDGYRTYYADSVKGRFTISRDNSKNTLYLQMNSLRAEDTAVYYCAKELGYFDYWGRGTLVTVSS
notes: domain antibody (dAb), single VH domain
B9: BMS3h-37-11 (other)
VH: B8 VH with R39K, W106R
notes: as for B8
B10: DMS0659 DOM7h-11-87-TVAAPS-BMS3h-56-201 (bispecific antibody)
chain: DIQMTQSPSSLSASVGDRVTITCRASRPIGTMLSWYQQKPGKAPKLLILAFSRLQSGVPSRFSGSGSGTDFTLTISSLQPEDFATYYCAQAGTHHTTFGQGTKVEIKRTVAAPSEVQLLESGGGLVQPGGSLRLSCAASGFTFRDYEMWWVRQAPGKGLERVSAINPQGTRTYYADSVKGRFTISRDNSKNTLYLQMNSLRAEDTAVYYCAKLPFYFQEWGQGTLVTVSS
notes: AlbudAb inline fusion (ILF): an anti-CD40 dAb and an anti-serum-albumin dAb joined by a linker in one polypeptide
B11: BMS3h-37-2 (other)
VH: B8 VH
notes: Human domain antibody (dAb), single VH domain
B12: BMS3h-37-11 (other)
VH: B8 VH with R39K, W106R
notes: as for B11
B13: BMS3h-38-2 (other)
VH: EVQLLASGGGLVQPGGSLRLSCAASGFTFEEEEMIWVRQAPGKGLEWVSAISGSGGSTYYADSVKGRFTISRDNSKNTLYLQMNSLRAEDTAVYYCGKEPFRYDYWGQGTLVTVSS
notes: as for B11
B14: BMS3h-38-211 (other)
VH: B13 VH with G53R, S54Q
notes: as for B11
B15: BMS3h-38-217 (other)
VH: B13 VH with G53R, S54R, G56Y
notes: as for B11
B16: BMS3h-38-215 (other)
VH: B13 VH with S54L, G56W
notes: as for B11
B17: BMS3h-56-1 (other)
VH: B1 VH with Q101F, L102T, H104E, R106W
notes: Anti-human CD40 domain antibody (dAb), single VH domain
B18: BMS3h-56-2 (other)
VH: B1 VH with Q101F, L102T, H104D, R106W
notes: as for B17

One assay concerns the target T1, human CD40 expressed on stably transfected CHO-DG44 cells (human, UniProt P25942 21-277).
T1 construct: Cell-surface human CD40 in the CHO cell RBA; also called CHO-CD40; human CD40 CHO cells
The assay is described as follows: CHO-CD40 cell RBA, competition with IZ-CD40L (FMAT).
Method: The mixture was incubated in the absence of light for 6 hours.
What is called EC50 is the concentration that produces a half-maximal response. In the case of B1, a half-maximal effect (EC50) was put at 42 nM.
On the same count and under the same terms, the value for B2 was 17 nM.
Still for that read-out and setting: the figure for B3 is 15 nM; for B4 it is 24 nM.
Turning to B5, it took 88 nM to reach a half-maximal effect (EC50).
For B6, the 50% effective concentration (EC50) was determined as 91 nM.
The molecule B7 returned an EC50 of 27 nM.

For another assay, the target named is human CD40 on RAMOS human B cells (human, UniProt P25942 21-277). The assay is described as follows: cell-based or functional assay.
In the case of B1, the “EC50 ICAM1 cell assay” value turned out to be 135 nM.
The same measure, in the same setting: the value for B2 was 42.4 nM.
With B3, the “EC50 ICAM1 cell assay” value was 23 nM.
Turning to B4, the “EC50 ICAM1 cell assay” value was determined as 34.2 nM.
On the same count and under the same terms, the figure for B5 is 289 nM; for B6 it is 93.8 nM.
With B7, the “EC50 ICAM1 cell assay” value was determined as 31.9 nM.

For the next assay, the target named is T2, human CD40 (H76R) Fc fusion (human, UniProt P25942 21-193).
T2 construct: As m1 with H76R; also called hCD40-M1; not shown: human IgG1 Fc
The assay is described as follows: SPR ProteOn XPR36, CD40-Fc captured, dAb analyte.
By Kd is commonly meant a measure of binding affinity in units of concentration. Regarding B8, binding was characterised by a dissociation constant (Kd) of 2.6 nM.
Still for that read-out and setting: the figure for B9 is 2.4 nM.

In the next assay the target is T3, wild type human CD40 Fc fusion (human, UniProt P25942 21-193).
T3 construct: also called wt-hCD40; not shown: human IgG1 Fc
The assay is described as follows: SPR ProteOn XPR36, CD40-Fc captured, dAb analyte.
Regarding B8, the affinity, expressed as Kd, was 2 nM.
As to B9, the Kd was 1.9 nM and 2.3 nM.

Another assay addresses T4, human CD40 (human, UniProt P25942 21-277).
T4 construct: Native on primary human tonsillar B cells, monocyte-derived dendritic cells and RAMOS cells; stably transfected on CHO-DG44 cells; also called hCD40
Put plainly: CHO-CD40 cell RBA: competition with biotinylated human IZ-CD40L for human CD40 on CHO cells, fluorescence (FMAT); 50 µM HSA.
Molecule B10 returned an EC50 of 3.3 nM.

A further assay addresses T4, human CD40. The assay is described as follows: CHO-CD40 cell RBA: competition with biotinylated human IZ-CD40L for human CD40 on CHO cells, fluorescence (FMAT); 0.1% BSA.
As to B10, the 50% effective concentration (EC50) is 7.2 nM.

The target of the next assay is T5, human CD40 (W109R) Fc fusion (Chimpanzee CD40) (human, UniProt P25942 21-193).
T5 construct: As m1 with W109R (residue of chimpanzee CD40); also called hCD40-M3; not shown: human IgG1 Fc
Put plainly: SPR ProteOn XPR36.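 Note: surface plasmon resonance with CD40-Fc fusions captured through their Fc on an anti-human IgG chip, sensorgrams reference-subtracted against surfaces lacking CD40-Fc.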
Consider B8, for which the binding result is “no binding (tested: 405 nM)”.
Same read-out and setting: the value for B9 was “no binding (tested: 405 nM)”.

The next assay concerns the target T6, human CD40 (W109L, L121P) Fc fusion (human, UniProt P25942 21-193).
T6 construct: As m1 with W109L and L121P; also called hCD40-M4; not shown: human IgG1 Fc
The assay is described as follows: SPR ProteOn XPR36.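 Note: surface plasmon resonance with CD40-Fc fusions captured through their Fc on an anti-human IgG chip, sensorgrams reference-subtracted against surfaces lacking CD40-Fc.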
As to B8, the binding result is reported as “no binding (tested: 405 nM)”.
Same read-out and setting: the value for B9 was “no binding (tested: 405 nM)”.

Another assay addresses T7, human CD40 (H76R, W109L, L121P) Fc fusion (human).
T7 construct: As m1 with H76R, W109L and L121P; also called hCD40-M5; not shown: human IgG1 Fc
T7 chain: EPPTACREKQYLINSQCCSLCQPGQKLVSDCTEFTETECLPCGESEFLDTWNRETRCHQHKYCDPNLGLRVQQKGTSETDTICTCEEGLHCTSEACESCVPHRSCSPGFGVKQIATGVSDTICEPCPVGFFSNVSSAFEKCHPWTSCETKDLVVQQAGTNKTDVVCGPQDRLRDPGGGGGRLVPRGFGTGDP
Put plainly: SPR ProteOn XPR36.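 Note: surface plasmon resonance with CD40-Fc fusions captured through their Fc on an anti-human IgG chip, sensorgrams reference-subtracted against surfaces lacking CD40-Fc.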
Regarding B8, the binding result is “no binding (tested: 405 nM)”.
On to B9, for which the binding result is on record as “no binding (tested: 405 nM)”.

A further assay has as its target T8, wild type cynomolgus monkey CD40 Fc fusion (cynomolgus monkey; human).
T8 construct: also called wt-cyno-CD40; wt-cCD40; not shown: human IgG1 Fc
T8 chain: T7 chain with A95S, S106L, H142R, L172Q
Put plainly: SPR ProteOn XPR36.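 Note: surface plasmon resonance with CD40-Fc fusions captured through their Fc on an anti-human IgG chip, sensorgrams reference-subtracted against surfaces lacking CD40-Fc.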
On to B8, for which the binding result is “no binding (tested: 405 nM)”.
On the same count and under the same terms, the value for B9 was “no binding (tested: 405 nM)”.

For the next assay, the target named is T9, human serum albumin (human, UniProt P02768 25-609).
T9 construct: Amine-coupled to a CM5 BIAcore chip; also called HSA
T9 sequence (P02768 25-609 limits assumed): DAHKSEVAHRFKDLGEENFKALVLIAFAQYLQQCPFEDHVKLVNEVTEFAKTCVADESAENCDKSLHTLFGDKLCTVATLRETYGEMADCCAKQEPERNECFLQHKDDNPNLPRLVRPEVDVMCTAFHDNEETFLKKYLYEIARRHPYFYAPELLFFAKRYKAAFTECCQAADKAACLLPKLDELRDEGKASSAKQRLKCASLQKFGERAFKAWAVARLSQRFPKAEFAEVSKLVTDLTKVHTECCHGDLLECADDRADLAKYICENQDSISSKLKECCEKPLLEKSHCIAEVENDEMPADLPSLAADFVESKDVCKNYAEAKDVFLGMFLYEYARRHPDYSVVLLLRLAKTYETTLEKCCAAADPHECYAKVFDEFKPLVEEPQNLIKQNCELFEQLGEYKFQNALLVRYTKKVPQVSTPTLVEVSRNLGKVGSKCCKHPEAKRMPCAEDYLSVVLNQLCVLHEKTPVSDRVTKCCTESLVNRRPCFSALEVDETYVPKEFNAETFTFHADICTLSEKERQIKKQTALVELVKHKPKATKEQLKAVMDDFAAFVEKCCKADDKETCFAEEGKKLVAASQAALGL
The assay is described as follows: SPR (BIAcore 3000), HSA amine-coupled on CM5 chip, ILF as analyte, 1:1 Langmuir fit, 25 C. (In SPR one partner is held on a chip, and binding of the other changes the refractive index at the surface.)
From the text: (§1) A BIAcore™ 3000 instrument (GE Healthcare) was used to analyze the binding kinetics of anti-CD40-AlbudAb ILFs to human and cynomolgus serum albumin. Approximately 400 response units (RU) of human serum albumin (HSA) or cynomolgus serum albumin (CSA) were immobilized on a flow-cell of a CM5 BIAcore™ chip using an Amine Coupling Kit (GE Healthcare). A second flow cell without any ligand immobilized served as a reference flow-cell for inline referencing. An appropriate doubling dilution series of each dAb to be analyzed was prepared in HBS-EP buffer (0.01 M HEPES pH 7.4 with 0.15 M NaCl, 3 mM EDTA and 0.005% v/v Surfactant P20, GE Healthcare). Two hundred microlitres of each ILF were injected in duplicate using the instrument's KINJECT function. The injections were made across the serum albumin-immobilized and reference flow-cells in series, with inline subtraction of the signal from the reference cell. The experiment was performed at 25° C. and a flow rate of 40 μl/min of HBS-EP. After each injection had been completed, the dAb was allowed to dissociate from the ligand in buffer for 120 s before regeneration with a 10 μl injection of 10 mM glycine pH 2.0. A reference injection of HBS-EP buffer blank (containing no analyte) was also injected under the same conditions to serve as a second reference for subtraction from each analyte trace. BIAevaluation 4.1 software (GE Healthcare) was used to subtract both the reference flow-cell trace and the buffer blank trace from each analyte trace.
(§2) The same software was used to perform a simultaneous, global fit of a 1:1 (Langmuir) kinetic model to the association and dissociation phases of the analyte dilution series traces. This model yielded association and dissociation rate constants (kₐ and kd, respectively) and the equilibrium dissociation constant (KD) of the interaction.
What is called koff is the rate constant with which the complex falls apart. B10: the koff is 0.00117 s⁻¹ and 0.00169 s⁻¹ and 0.0012 s⁻¹.

A further assay concerns the target T10, human CD40 (H76R) Fc fusion (human, UniProt P25942 21-193).
T10 construct: Built as wt-hCD40 with the printed substitution; also called hCD40-M1; hCD40 M1 (H76R)
The assay is described as follows: SPR (ProteOn XPR36), dAb over CD40-Fc captured by anti-human IgG(Fc).
Method: (§3) Assays were performed on a BioRad ProteOn XPR36 SPR instrument. The SPR surfaces were prepared by immobilizing 8 μg/ml anti-human IgG(Fc) antibody (Biacore/GE Healthcare) in 10 mM sodium acetate pH 4.5 on a BioRad GLC sensor chip using standard ethyl(dimethylaminopropyl) carbodiimide (EDC)/N-hydroxysuccinimide (NHS) chemistry, with ethanolamine blocking. The running buffer for immobilization and kinetic binding analysis was 10 mM sodium phosphate, 130 mM sodium chloride, 0.05% tween 20, pH 7.1. CD40-Fc fusion proteins at concentrations of 20 μg/ml were captured in the vertical orientation on these surfaces via the Fc tail, and reference surfaces lacking CD40-Fc proteins were used for reference subtraction. […] The surfaces were regenerated in both horizontal and vertical orientations with 30 s pulses of 3 M MgCl₂ followed by running buffer at 60 μl/min. Sensogram data was double-referenced and then fitted to a 1:1 Langmuir model using BioRad ProteOn Manager V.2.1.0.38 software, to determine the association rate constant (ka), the dissociation rate constant (kd), and the equilibrium dissociation constant (KD).
With B11, the equilibrium dissociation constant (Kd) was less than 10 nM.
On the same count and under the same terms, the figure for B12 is less than 10 nM; for B13 it is less than 10 nM; for B14 it is less than 10 nM.
Still for that read-out and setting: the value for B15 was less than 10 nM; that for B16 was less than 10 nM.

For the next assay, the target named is T11, wild type human CD40 Fc fusion (human, UniProt P25942 21-193).
T11 construct: also called wt-hCD40
The assay is described as above.
Method: as §3
In turn, B11 yielded a Kd of less than 10 nM.
On the same count and under the same terms, the figure for B12 is less than 10 nM; for B13 it is less than 10 nM.
Molecule B14 returned a dissociation constant Kd of less than 10 nM.
On the same count and under the same terms, the value for B15 was less than 10 nM; that for B16 was less than 10 nM.

The next assay addresses T12, human CD40 (H76R, W109L, L121P) Fc fusion (human).
T12 construct: Same construct as wt-hCD40 with H76R, W109L and L121P; also called hCD40-M5; hCD40-M5 (H76R, W109L, L121P); not shown: human IgG1 Fc
T12 chain: T7 chain
Put plainly: SPR, ProteOn XPR36; CD40-Fc captured, dAb analyte.
Take B17: the binding result was “no binding (tested: dAb tested up to 405 nM)”.
The same measure, in the same setting: the value for B18 was “no binding (tested: dAb tested up to 405 nM)”.

Another assay has as its target T13, human CD40 (W109L, L121P) Fc fusion (human, UniProt P25942 21-193).
T13 construct: Same construct as wt-hCD40 with W109L and L121P; also called hCD40-M4; hCD40 M4 (W109L, L121P); not shown: human IgG1 Fc
Put plainly: SPR, ProteOn XPR36; CD40-Fc captured, dAb analyte.
As to B17, the binding result is given as “no binding (tested: dAb tested up to 405 nM)”.
Still for that read-out and setting: the entry for B18 is “no binding (tested: dAb tested up to 405 nM)”.

The next assay addresses T14, wild type cynomolgus monkey CD40 Fc fusion (cynomolgus monkey (Macaca …)).
T14 construct: also called wt-cCD40; wt-cyno-CD40; not shown: human IgG1 Fc
T14 chain: T7 chain with A95S, S106L, H142R, L172Q
The assay is described as follows: SPR, ProteOn XPR36; CD40-Fc captured, dAb analyte.
Regarding B17, the binding result is “no binding (tested: dAb tested up to 405 nM)”.

In the next assay the target is T15, human CD40 (BMS, CY24FEB06-01) (human, UniProt P25942 21-193).
T15 construct: Soluble human CD40 reagent of the ELISA RBA
Put plainly: ELISA RBA, competition with IZ-CD40L for soluble human CD40.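 Note: Neutravidin-coated 384-well plates, dAb–human CD40 complex incubated 2 h at room temperature, read-out as absorbance at 450 nm.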
Method: Clear walled High Bind, 384-well plates (Corning, UK) were coated with 25 μl of 1 μg/ml Neutravidin in 0.2 M carbonate-bicarbonate buffer, pH 9.4 overnight at 4° C. The following day, assay plates were washed with 0.1% (v/v) Tween PBS buffer, blocked with 1% (w/v) BSA in PBS for 1 hour at room temperature and washed again. […] Following washing of the assay plate, the dAb:human CD40 complex was incubated in the assay plate at room temperature for 2 hours with gentle agitation. […] Absorbance signal was measured using a SpectraMax® M5e plate reader (Molecular Devices) at 450 nm following neutralization with 1M HCl solution.
In turn, B1 yielded an EC50 of 4 nM.
Same read-out and setting: the value for B2 was 5.7 nM.
On the same count and under the same terms, the value for B3 was 5.2 nM; that for B4 was 3.3 nM.
Turning to B5, the midpoint of the response, the EC50, lay at 18.8 nM.
In turn, B6 had a concentration giving a half-maximal response (EC50) of 11.3 nM.
On the same count and under the same terms, the value for B7 was 3.8 nM.

In the next assay the target is T16, cynomolgus serum albumin (cynomolgus, UniProt A2V9Z4 25-608).
T16 construct: Amine-coupled to a CM5 BIAcore chip; also called CSA; Cyno Serum Albumin
T16 sequence (A2V9Z4 25-608 limits assumed): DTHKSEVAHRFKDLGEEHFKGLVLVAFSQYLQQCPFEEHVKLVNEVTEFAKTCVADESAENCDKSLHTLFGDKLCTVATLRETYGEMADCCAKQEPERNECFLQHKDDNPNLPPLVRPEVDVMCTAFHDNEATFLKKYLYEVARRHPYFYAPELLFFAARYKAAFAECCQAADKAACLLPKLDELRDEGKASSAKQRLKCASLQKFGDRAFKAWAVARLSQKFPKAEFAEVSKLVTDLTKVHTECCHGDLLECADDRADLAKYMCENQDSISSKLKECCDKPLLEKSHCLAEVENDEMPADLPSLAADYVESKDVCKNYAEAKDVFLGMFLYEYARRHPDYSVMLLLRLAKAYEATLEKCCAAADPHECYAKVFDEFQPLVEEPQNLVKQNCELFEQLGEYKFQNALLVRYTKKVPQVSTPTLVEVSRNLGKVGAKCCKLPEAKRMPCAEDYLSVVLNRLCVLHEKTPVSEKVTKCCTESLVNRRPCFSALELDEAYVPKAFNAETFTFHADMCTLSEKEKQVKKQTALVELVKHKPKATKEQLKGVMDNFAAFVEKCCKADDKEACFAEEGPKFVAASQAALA
Put plainly: SPR (BIAcore 3000), CSA amine-coupled on CM5 chip, ILF as analyte, 1:1 Langmuir fit, 25 C.
From the text: as §1, §2
Regarding B10, the off-rate (koff) is 0.00237 s⁻¹ and 0.00337 s⁻¹ and 0.0024 s⁻¹.

For the origin of these results see patent US20200199244A1 (published 2020).
